Assays:
RBcel1 [1] = molecular target: T1, RBcel1 (uncultured bacterium, UniProt Z9EI17H729, Y201F); experiment: X-ray crystal structure, […] Å; settings: co-crystal with 1 mM G3, pH 7; covalent to Glu245 (monomer D, occupancy 0.13); also +1 to +3 subsites (monomer C)
T1 sequence (Z9EI17H729 1-321 Y201F): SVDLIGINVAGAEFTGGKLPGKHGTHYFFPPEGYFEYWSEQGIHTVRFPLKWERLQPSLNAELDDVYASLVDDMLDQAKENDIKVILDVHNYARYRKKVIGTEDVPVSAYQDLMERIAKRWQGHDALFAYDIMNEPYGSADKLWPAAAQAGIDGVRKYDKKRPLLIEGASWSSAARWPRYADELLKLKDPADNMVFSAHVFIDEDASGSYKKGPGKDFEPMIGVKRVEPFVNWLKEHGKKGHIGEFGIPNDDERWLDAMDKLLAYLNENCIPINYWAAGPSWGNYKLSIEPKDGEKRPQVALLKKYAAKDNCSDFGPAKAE

RBcel1 [2] = molecular target: T2, RBcel1 (uncultured bacterium, UniProt Z9EI17H729, E135Q); experiment: X-ray crystal structure, […] Å; type: binding; settings: co-crystal with 1 mM G3, pH 7.4; subsites +1 to +3 (monomer A) and -4 to -2 (monomer B)
T2 construct: 321 residues
T2 sequence (Z9EI17H729 1-321 E135Q): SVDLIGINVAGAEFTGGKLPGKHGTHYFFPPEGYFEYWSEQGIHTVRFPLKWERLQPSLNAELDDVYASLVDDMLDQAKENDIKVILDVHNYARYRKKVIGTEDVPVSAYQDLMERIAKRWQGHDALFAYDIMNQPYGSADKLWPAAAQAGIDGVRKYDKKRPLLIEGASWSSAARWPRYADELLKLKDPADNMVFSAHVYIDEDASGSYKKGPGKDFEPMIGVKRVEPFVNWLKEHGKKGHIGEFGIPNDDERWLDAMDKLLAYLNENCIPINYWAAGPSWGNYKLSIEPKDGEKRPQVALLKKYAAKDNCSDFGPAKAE

purified protein [3] = substrate: O=[N+]([O-])c1ccc(O[C@@H]2O[C@H](CO)[C@@H](O[C@@H]3O[C@H](CO)[C@@H](O[C@@H]4O[C@H](CO)[C@@H](O)[C@H](O)[C@H]4O)[C@H](O)[C@H]3O)[C@H](O)[C@H]2O)c(Cl)c1; experiment: purified protein; type: biochemical, uncultured bacterium; settings: 20 mM sodium phosphate pH 6.5, 37°C
purified protein [4] = substrate: O=[N+]([O-])c1ccc(O[C@@H]2O[C@H](CO)[C@@H](O[C@@H]3O[C@H](CO)[C@@H](O[C@@H]4O[C@H](CO)[C@@H](O[C@@H]5O[C@H](CO)[C@@H](O)[C@H](O)[C@H]5O)[C@H](O)[C@H]4O)[C@H](O)[C@H]3O)[C@H](O)[C@H]2O)c(Cl)c1; experiment: purified protein; type: biochemical, uncultured bacterium; settings: 20 mM sodium phosphate pH 6.5, 37°C, apparent parameters, text b31 prints µM, table mM (agrees with kcat/Km)
purified protein [5] = substrate: O=[N+]([O-])c1ccc(O[C@@H]2O[C@H](CO)[C@@H](O[C@@H]3O[C@H](CO)[C@@H](O[C@@H]4O[C@H](CO)[C@@H](O[C@@H]5O[C@H](CO)[C@@H](O[C@@H]6O[C@H](CO)[C@@H](O)[C@H](O)[C@H]6O)[C@H](O)[C@H]5O)[C@H](O)[C@H]4O)[C@H](O)[C@H]3O)[C@H](O)[C@H]2O)c(Cl)c1; experiment: purified protein; type: biochemical, uncultured bacterium; settings: 20 mM sodium phosphate pH 6.5, 37°C, apparent parameters, printed kcat disagrees with printed kcat/Km (tenfold)
[6] = 36 µM enzyme, methods name the substrate ClPNP β-G1, results ClPNP β-G3
[7] = apparent parameters, text b31 prints µM, table mM (agrees with kcat/Km)
[8] = 22 µM enzyme, methods name the substrate ClPNP β-G1, results ClPNP β-G3

In the case of OC[C@H]1O[C@@H](O[C@H]2[C@H](O)[C@@H](O)[C@H](O[C@H]3[C@H](O)[C@@H](O)C(O)O[C@@H]3CO)O[C@@H]2CO)[C@H](O)[C@@H](O)[C@@H]1O (stereo partly shown) [G3, cellotriose], the “X-ray crystal structure, 1.75 Å” value (RBcel1 [1]) is reported as “G3 and G4 were placed in the negative subsites” and the “X-ray crystal structure, 1.73 Å” value (RBcel1 [2]) is reported as “each in complex with a differently positioned G3 molecule”.

B1: RBcel1 (uncultured bacterium; E135Q) (protein)
chain: SVDLIGINVAGAEFTGGKLPGKHGTHYFFPPEGYFEYWSEQGIHTVRFPLKWERLQPSLNAELDDVYASLVDDMLDQAKENDIKVILDVHNYARYRKKVIGTEDVPVSAYQDLMERIAKRWQGHDALFAYDIMNQPYGSADKLWPAAAQAGIDGVRKYDKKRPLLIEGASWSSAARWPRYADELLKLKDPADNMVFSAHVYIDEDASGSYKKGPGKDFEPMIGVKRVEPFVNWLKEHGKKGHIGEFGIPNDDERWLDAMDKLLAYLNENCIPINYWAAGPSWGNYKLSIEPKDGEKRPQVALLKKYAAKDNCSDFGPAKAE
notes: 321 residues
In the case of B1, the Km (purified protein [3]; [6]) is reported as 263 ± 41 µM and the kcat (purified protein [3]; [6]) is reported as 0.219 ± 0.009 × 10^-3 min^-1.

B2: RBcel1 (uncultured bacterium) (protein)
chain: SVDLIGINVAGAEFTGGKLPGKHGTHYFFPPEGYFEYWSEQGIHTVRFPLKWERLQPSLNAELDDVYASLVDDMLDQAKENDIKVILDVHNYARYRKKVIGTEDVPVSAYQDLMERIAKRWQGHDALFAYDIMNEPYGSADKLWPAAAQAGIDGVRKYDKKRPLLIEGASWSSAARWPRYADELLKLKDPADNMVFSAHVYIDEDASGSYKKGPGKDFEPMIGVKRVEPFVNWLKEHGKKGHIGEFGIPNDDERWLDAMDKLLAYLNENCIPINYWAAGPSWGNYKLSIEPKDGEKRPQVALLKKYAAKDNCSDFGPAKAE
notes: 321 residues
For B2, the Km (purified protein [3]; [7]) was 2370 ± 260 µM, the kcat (purified protein [3]; [7]) was 0.52 ± 0.02 s⁻¹ and the kcat/Km (purified protein [3]; [7]) was 220 ± 20 M⁻¹ s⁻¹. The Km (purified protein [4]) was 300 ± 30 µM, the kcat (purified protein [4]) was 0.58 ± 0.01 s⁻¹ and the kcat/Km (purified protein [4]) was 1880 ± 190 M⁻¹ s⁻¹. It also gave a Km (purified protein [5]) of 340 ± 50 µM.

B3: RBcel1 (uncultured bacterium; Y201F) (protein)
chain: SVDLIGINVAGAEFTGGKLPGKHGTHYFFPPEGYFEYWSEQGIHTVRFPLKWERLQPSLNAELDDVYASLVDDMLDQAKENDIKVILDVHNYARYRKKVIGTEDVPVSAYQDLMERIAKRWQGHDALFAYDIMNEPYGSADKLWPAAAQAGIDGVRKYDKKRPLLIEGASWSSAARWPRYADELLKLKDPADNMVFSAHVFIDEDASGSYKKGPGKDFEPMIGVKRVEPFVNWLKEHGKKGHIGEFGIPNDDERWLDAMDKLLAYLNENCIPINYWAAGPSWGNYKLSIEPKDGEKRPQVALLKKYAAKDNCSDFGPAKAE
notes: 321 residues
With B3 the Km (purified protein [3]; [8]) was 77 ± 10 µM and the kcat (purified protein [3]; [8]) was 0.194 ± 0.023 × 10^-3 min^-1.

— paper PMC8900817, “Highlighting the factors governing transglycosylation in the GH5_5 endo-1,4-β-glucanase RBcel1” (Acta Crystallographica. Section D, Structural Biology, 2022)
